B1: β-catenin (other, human, UniProt P35222 2-781, looked up)
chain: ATQADLMELDMAMEPDRKAAVSHWQQQSYLDSGIHSGATTTAPSLSGKGNPEEEDVDTSQVLYEWEQGFSQSFTQEQVADIDGQYAMTRAQRVRAAMFPETLDEGMQIPSTQFDAAHPTNVQRLAEPSQMLKHAVVNLINYQDDAELATRAIPELTKLLNDEDQVVVNKAAVMVHQLSKKEASRHAIMRSPQMVSAIVRTMQNTNDVETARCTAGTLHNLSHHREGLLAIFKSGGIPALVKMLGSPVDSVLFYAITTLHNLLLHQEGAKMAVRLAGGLQKMVALLNKTNVKFLAITTDCLQILAYGNQESKLIILASGGPQALVNIMRTYTYEKLLWTTSRVLKVLSVCSSNKPAIVEAGGMQALGLHLTDPSQRLVQNCLWTLRNLSDAATKQEGMEGLLGTLVQLLGSDDINVVTCAAGILSNLTCNNYKNKMMVCQVGGIEALVRTVLRAGDREDITEPAICALRHLTSRHQEAEMAQNAVRLHYGLPVVVKLLHPPSHWPLIKATVGLIRNLALCPANHAPLREQGAIPRLVQLLVRAHQDTQRRTSMGGTQQQFVEGVRMEEIVEGCTGALHILARDVHNRIVIRGLNTIPLFVQLLYSPIENIQRVAAGVLCELAQDKEAAEAIEAEGATAPLTELLHSRNEGVATYAAAVLFRMSEDKPQDYKKRLSVELTSSLFRTEPMAWNETADLGLDIGAQGEPLGYRQDDPSYRSFHSGGYGQDALGMDPMMEHEMGGHHPGADYPVDGLPDLGHAQDLMDGLPPGDSNQLAWFDTDL
notes: Endogenous protein in fixed human cells or tissue, detected through an unnamed primary antibody and a fractional-initiator secondary antibody probe
B2: E-cadherin (receptor, human, UniProt P12830 155-882, looked up)
chain: DWVIPPISCPENEKGPFPKNLVQIKSNKDKEGKVFYSITGQGADTPPVGVFIIERETGWLKVTEPLDRERIATYTLFSHAVSSNGNAVEDPMEILITVTDQNDNKPEFTQEVFKGSVMEGALPGTSVMEVTATDADDDVNTYNAAIAYTILSQDPELPDKNMFTINRNTGVISVVTTGLDRESFPTYTLVVQAADLQGEGLSTTATAVITVTDTNDNPPIFNPTTYKGQVPENEANVVITTLKVTDADAPNTPAWEAVYTILNDDGGQFVVTTNPVNNDGILKTAKGLDFEAKQQYILHVAVTNVVPFEVSLTTSTATVTVDVLDVNEAPIFVPPEKRVEVSEDFGVGQEITSYTAQEPDTFMEQKITYRIWRDTANWLEINPDTGAISTRAELDREDFEHVKNSTYTALIIATDNGSPVATGTGTLLLILSDVNDNAPIPEPRTIFFCERNPKPQVINIIDADLPPNTSPFTAELTHGASANWTIQYNDPTQESIILKPKMALEVGDYKINLKLMDNQNKDQVTTLEVSVCDCEGAAGVCRKAQPVEAGLQIPAILGILGGILALLILILLLLLFLRRRAVVKEPLLPPEDDTRDNVYYYDEEGGGEEDQDFDLSQLHRGLDARPEVTRNDVAPTLMSVPRYLPRPANPDEIGNFIDENLKAADTDPTAPPYDSLLVFDYEGSGSEAASLSSLNSSESDKDQDYDYLNEWGNRFKKLADMYGGGEDD
notes: Endogenous membrane protein in fixed human cells or tissue, detected through an unnamed primary antibody and a fractional-initiator secondary antibody probe
B3: SC35 (protein, human, UniProt Q01130 2-221, looked up)
chain: SYGRPPPDVEGMTSLKVDNLTYRTSPDTLRRVFEKYGRVGDVYIPRDRYTKESRGFAFVRFHDKRDAEDAMDAMDGAVLDGRELRVQMARYGRPPDSHHSRRGPPPRRYGGGGYGRRSRSPRRRRRSRSRSRSRSRSRSRSRYSRSKSRSRTRSRSRSTSKSRSARRSKSKSSSVSRSRSRSRSRSRSRSPPPVSKRESKSRSRSKSPPKSPEEEGAVSS

What was measured:
[1] = biological target: B2; test: HCR proximity imaging in FFPE human breast tissue section; background from a region with low/no complex; SEM, N=3 regions
Description: FIG. 16 depicts imaging the β-catenin:E-cadherin target complex in a highly autofluorescent FFPE human breast tissue section (5-μm thickness) using a pair of fractional-initiator probes, a proximity probe, and an HCR amplifier. Background was assessed by fluorescence in a region of the sample in which there is low/no abundance of the protein:protein complex. A high signal-to-background ratio was obtained (70±20) (standard error of the mean, N=3 representative regions).

[2] = biological target: B2; test: HCR proximity imaging; normal against invasive lobular carcinoma FFPE human breast tissue sections; mean±SEM, N=3 sections
Description: (§1) For each pair of sample types, signal-to-background was calculated using the positive sample type to estimate signal plus background and the negative sample type to estimate background.
The β-catenin:E-cadherin target complex was detected in highly autofluorescent FFPE human breast tissue sections. The β-catenin:E-cadherin complex is robustly formed in normal breast epithelial cells, but the expression of and interaction between the β-catenin and E-cadherin proteins is interrupted when breast epithelial cells become cancerous in the invasive lobular carcinoma disease process.^{66,67} Paired normal and invasive lobular carcinoma FFPE breast tissue sections from the same patient were evaluated for the β-catenin:E-cadherin target complex, yielding strong HCR signal in normal breast tissue (FIG. 45C; positive sample) and no visible staining in cancerous tissue (FIG. 45D; negative sample), with a signal-to-background ratio of 30±3 between the two tissue types (mean±SEM for representative regions of N=3 replicate sections).

[3] = biological target: B2; test: HCR proximity imaging of the endogenous complex in fixed A-431 human cells; background from controls omitting the antibodies to one protein; SEM, N=3 cells
Description: For each protein:protein complex, background was assessed by technical controls in which the antibodies corresponding to one protein of the complex were omitted, simulating a scenario in which the two proteins are not in a complex with one another. For each of three protein:protein target complexes, a high signal-to-background ratio was obtained: 170±10 (SC35:SON), 50±10 (β-catenin:E-cadherin), and 140±10 (α-tubulin:β-tubulin) (standard error of the mean, representative regions within N=3 cells).

[4] = biological target: B2; test: HCR proximity imaging; A-431 cells (positive) against HeLa cells (negative, lacking E-cadherin); mean±SEM, N=3 wells
Description: as §1
(§2) While A-431 cells formed the β-catenin:E-cadherin complex at the cell membrane of intercellular junctions,⁶³ HeLa cells express N-cadherin rather than E-cadherin^{64,65} and therefore lacked the β-catenin:E-cadherin complex.

[5] = biological target: B1; test: HCR proximity imaging; A-431 cells positive sample, HeLa cells negative sample
Description: as §1, §2

[6] = substrate: SON (human) (UniProt P18583); test: HCR proximity imaging of the endogenous complex in fixed A-431 human cells; background from controls omitting the antibodies to one protein; SEM, N=3 cells
SON (human), sequence (P18583 2-2426 limits assumed): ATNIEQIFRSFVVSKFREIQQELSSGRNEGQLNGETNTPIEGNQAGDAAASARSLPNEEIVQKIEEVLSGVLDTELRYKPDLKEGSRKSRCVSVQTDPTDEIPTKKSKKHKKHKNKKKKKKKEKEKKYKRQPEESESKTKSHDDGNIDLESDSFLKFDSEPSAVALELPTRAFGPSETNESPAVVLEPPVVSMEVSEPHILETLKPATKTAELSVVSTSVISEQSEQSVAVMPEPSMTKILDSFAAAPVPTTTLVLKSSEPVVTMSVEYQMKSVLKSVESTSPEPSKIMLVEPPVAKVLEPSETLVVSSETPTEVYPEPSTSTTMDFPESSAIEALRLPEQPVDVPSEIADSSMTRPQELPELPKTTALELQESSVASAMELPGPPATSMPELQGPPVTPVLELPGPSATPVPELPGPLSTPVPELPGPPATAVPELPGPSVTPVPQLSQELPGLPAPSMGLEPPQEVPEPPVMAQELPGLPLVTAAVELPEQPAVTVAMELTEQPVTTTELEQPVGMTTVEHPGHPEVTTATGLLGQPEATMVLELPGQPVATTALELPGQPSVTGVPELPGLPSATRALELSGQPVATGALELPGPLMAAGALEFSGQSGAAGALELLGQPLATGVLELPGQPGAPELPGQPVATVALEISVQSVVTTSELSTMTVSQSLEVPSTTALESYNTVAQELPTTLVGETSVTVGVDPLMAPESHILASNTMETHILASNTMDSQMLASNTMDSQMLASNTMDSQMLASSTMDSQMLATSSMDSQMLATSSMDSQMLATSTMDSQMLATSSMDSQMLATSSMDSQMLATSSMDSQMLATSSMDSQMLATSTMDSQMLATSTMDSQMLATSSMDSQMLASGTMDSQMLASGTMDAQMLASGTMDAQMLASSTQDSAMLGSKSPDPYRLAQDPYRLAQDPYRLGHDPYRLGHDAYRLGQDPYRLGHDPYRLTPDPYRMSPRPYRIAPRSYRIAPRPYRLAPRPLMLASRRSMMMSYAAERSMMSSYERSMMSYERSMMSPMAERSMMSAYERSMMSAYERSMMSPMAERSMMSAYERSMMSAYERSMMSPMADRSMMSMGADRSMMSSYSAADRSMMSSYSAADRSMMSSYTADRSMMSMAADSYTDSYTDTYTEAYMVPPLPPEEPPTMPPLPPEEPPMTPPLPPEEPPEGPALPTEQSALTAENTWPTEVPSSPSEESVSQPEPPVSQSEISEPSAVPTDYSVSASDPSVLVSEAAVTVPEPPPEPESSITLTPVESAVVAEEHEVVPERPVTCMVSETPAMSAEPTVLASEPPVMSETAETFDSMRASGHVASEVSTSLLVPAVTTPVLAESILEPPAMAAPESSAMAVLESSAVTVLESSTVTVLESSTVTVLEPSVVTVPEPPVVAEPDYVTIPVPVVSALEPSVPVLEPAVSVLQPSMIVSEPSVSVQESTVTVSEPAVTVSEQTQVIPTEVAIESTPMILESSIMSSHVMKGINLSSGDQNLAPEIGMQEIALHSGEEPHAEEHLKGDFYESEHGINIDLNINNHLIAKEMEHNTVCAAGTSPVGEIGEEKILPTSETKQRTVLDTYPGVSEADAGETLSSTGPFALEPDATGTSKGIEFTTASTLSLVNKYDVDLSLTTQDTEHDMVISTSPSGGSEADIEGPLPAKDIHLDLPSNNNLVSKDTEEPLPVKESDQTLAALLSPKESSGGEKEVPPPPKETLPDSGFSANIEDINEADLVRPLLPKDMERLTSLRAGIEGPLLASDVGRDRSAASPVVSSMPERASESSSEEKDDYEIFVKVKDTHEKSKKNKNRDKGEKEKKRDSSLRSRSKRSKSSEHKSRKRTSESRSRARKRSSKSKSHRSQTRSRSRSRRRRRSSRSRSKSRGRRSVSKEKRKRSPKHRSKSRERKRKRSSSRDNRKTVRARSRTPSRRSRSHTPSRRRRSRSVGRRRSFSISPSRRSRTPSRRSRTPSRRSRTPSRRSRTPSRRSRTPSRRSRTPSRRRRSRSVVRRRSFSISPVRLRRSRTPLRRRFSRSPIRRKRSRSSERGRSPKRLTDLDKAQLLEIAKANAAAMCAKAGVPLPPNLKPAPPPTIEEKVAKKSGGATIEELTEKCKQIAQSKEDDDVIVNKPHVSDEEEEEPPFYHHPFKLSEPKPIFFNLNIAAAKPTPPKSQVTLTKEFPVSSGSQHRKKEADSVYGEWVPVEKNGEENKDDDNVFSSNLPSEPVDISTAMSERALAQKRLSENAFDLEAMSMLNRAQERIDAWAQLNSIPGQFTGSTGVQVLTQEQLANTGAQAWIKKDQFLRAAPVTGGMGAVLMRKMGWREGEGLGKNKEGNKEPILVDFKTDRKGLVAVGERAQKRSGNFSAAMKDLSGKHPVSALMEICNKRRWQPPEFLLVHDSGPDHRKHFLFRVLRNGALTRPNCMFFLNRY

Binder: B1
signal-to-background ratio [1]: 70
signal-to-background ratio [2]: 30
signal-to-background ratio [3]: 50
signal-to-background ratio [4]: 26

Binder: B2
binding result [5]: binds

Binder: B3
signal-to-background ratio [6]: 170

Reference: patent US20240294983A1 (CALIFORNIA INSTITUTE OF TECHNOLOGY, published 2024)
